Molecular target: the molecule itself
Experiment: crystal structure; tagless hCEACAM1 IgV at 15 mg/ml; sitting drop, 25 °C; 0.2 M ammonium sulfate, 0.1 M HEPES pH 7.5, 25% w/v PEG 3350; space group C121; 2.2 Å; three molecules in the asymmetric unit

B1: human CEACAM1 IgV domain, wild type (tagless) (domain or fragment)
chain: QLTTESMPFNVAEGKEVLLLVHNLPQQLFGYSWYKGERVDGNRQIVGYAIGTQQATPGPANSGRETIYPNASLLIQNVTQNDTGFYTLQVIKSDLVNEEATGQFHVY
notes: carcinoembryonic antigen-related cell adhesion molecule 1 (CEACAM1), human, N-terminal IgV domain, non-glycosylated; The 15N-labelled form (M9 medium) was used for NMR, the unlabelled form for the crystals and UV spectroscopy; also called hCEACAM1 IgV; hCEACAM1 WT
binding result: binds
